One substance from US7091027B1, “Transgenic amorpha-4,11-diene synthesis” (GenoClipp Biotechnology B.V., priority 1998, dated 2006) can be followed below.

This data set relates to T1, CC(C)=CCC/C(C)=C/CC/C(C)=C/CO[P@@](=O)(O)OP(=O)(O)O.
T1 construct: This enzyme preparation was used for the measurement of enzyme characteristics such as molecular weight and Km; from tissue; host or cells: young leaves of greenhouse-grown A. annua
As to the kind of experiment: Enzyme kinetics of Mono-Q purified amorphadiene synthase in the [3H]-FPP assay. It is filed as biochemical, A. annua. As to conditions: other: 5- and 10-fold diluted Mono-Q eluted enzyme preparation, [3H]-FPP 0.25–100 μM, 30 min at 30° C. The protocol:
During enzyme isolation and preparation of the assays, all operations were carried out on ice or at 4° C. Ten grams of frozen young leaves from greenhouse-grown A. annua were ground in a pre-chilled mortar and pestle in 40 ml of pre-chilled buffer containing 25 mM MES (pH 5.5), 20% (v/v) glycerol, 25 mM sodium ascorbate, 25 mM NaHSO3, 10 mM MgCl2 and 5 mM DTT (buffer A) slurried with 1 g polyvinylpolypyrrolidone (PVPP) and a spatula tip of purified sea sand. Ten grams of polystyrene resin (Amberlite XAD-4, Serva) were added and the slurry was stirred carefully for 10 min and then filtered through cheesecloth. The filtrate was centrifuged at 20,000 g for 20 min (pellet discarded), and then at 100,000 g for 90 min. […]
The remainder of the supernatant was added to 12.5 g DEAE anion exchanger (Whatman DE-52), which had been rinsed several times with buffer A, and stirred carefully for 10 min. […] The molecular weight was determined using size-exclusion chromatography. 200 μl of the Mono-Q eluent was loaded on a Superdex 75 (H/R10/30, Pharmacia Biotech) and eluted in the same buffer as used for Mono-Q. Enzyme activities in 0.5 ml fractions were determined as described for Mono-Q, but using undiluted eluent. […] Enzyme-kinetics were determined using 5- and 10-fold diluted Mono-Q eluted enzyme preparation and [^3H]-FPP concentrations ranging from 0.25–100 μM. […]

Sequence of amorphadiene synthase (Artemisia annua) (chain, as listed by the source): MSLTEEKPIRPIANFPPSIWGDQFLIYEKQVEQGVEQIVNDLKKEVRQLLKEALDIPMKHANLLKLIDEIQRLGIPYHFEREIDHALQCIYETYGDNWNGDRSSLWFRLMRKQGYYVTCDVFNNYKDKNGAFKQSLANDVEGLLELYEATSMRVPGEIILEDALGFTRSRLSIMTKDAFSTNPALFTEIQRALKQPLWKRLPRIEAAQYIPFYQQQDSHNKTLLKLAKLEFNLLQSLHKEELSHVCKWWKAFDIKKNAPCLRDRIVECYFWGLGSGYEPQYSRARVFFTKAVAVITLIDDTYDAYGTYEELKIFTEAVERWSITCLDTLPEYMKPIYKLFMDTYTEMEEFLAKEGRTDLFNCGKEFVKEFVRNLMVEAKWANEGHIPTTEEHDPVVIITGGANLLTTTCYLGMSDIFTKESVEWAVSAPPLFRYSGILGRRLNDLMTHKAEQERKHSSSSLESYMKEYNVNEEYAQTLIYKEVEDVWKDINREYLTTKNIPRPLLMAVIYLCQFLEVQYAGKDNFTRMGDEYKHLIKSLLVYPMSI

In the case of amorphadiene synthase (Artemisia annua), the Km (as a rule, the substrate concentration at which the rate is half of its maximum) is 0.6 µM.
